From the supplement of paper PMC7125110
± gives the standard error. For some of these results: This sample holds only a part of the variants without activity.

B1: glmS ribozyme (parent)
chain: AUAAAAGCGCCAGAACUACAGAAAUGUAGUUGACGAGGAGGAGGUUUAUCGAAUUUUCGGCGGAUGCCUCCAAA

Assays:
Conditions in all cases: with glucosamine-6-phosphate
glucosamine-6-phosphate [1] = variants of: B1; assay: self-cleavage kobs at 40 uM GlcN6P; higher = faster cleavage; RNA array
Outline: (§1)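 A hybridised Cy3 probe tracked barcoded ribozyme variants, transcribed in situ by E. coli RNA polymerase on sequenced MiSeq chips, at 37 °C. The variants received 40 μM to 10 mM glucosamine-6-phosphate in HEPES/KCl/Mg(OAc)2 buffer. kobs came from decay fits and kcat and KM from weighted Michaelis–Menten fits.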

glucosamine-6-phosphate [2] = variants of: B1; assay: self-cleavage kobs at 160 uM GlcN6P; higher = faster cleavage; RNA array
Outline: as §1

glucosamine-6-phosphate [3] = variants of: B1; assay: self-cleavage kobs at 640 uM GlcN6P; higher = faster cleavage; RNA array
Outline: as §1

glucosamine-6-phosphate [4] = variants of: B1; assay: self-cleavage kobs at 2500 uM GlcN6P; higher = faster cleavage; RNA array
Outline: as §1

glucosamine-6-phosphate [5] = variants of: B1; assay: self-cleavage kobs at 10000 uM GlcN6P; higher = faster cleavage; RNA array
Outline: as §1

glucosamine-6-phosphate [6] = variants of: B1; assay: kcat; higher = faster cleavage; RNA array
Outline: as §1

glucosamine-6-phosphate [7] = variants of: B1; assay: KM; higher = weaker cofactor use; RNA array
Outline: as §1

| Variant | self-cleavage kobs at 40 uM GlcN6P (glucosamine-6-phosphate [1]) [s⁻¹] | self-cleavage kobs at 160 uM GlcN6P (glucosamine-6-phosphate [2]) [s⁻¹] | self-cleavage kobs at 640 uM GlcN6P (glucosamine-6-phosphate [3]) [s⁻¹] | self-cleavage kobs at 2500 uM GlcN6P (glucosamine-6-phosphate [4]) [s⁻¹] | self-cleavage kobs at 10000 uM GlcN6P (glucosamine-6-phosphate [5]) [s⁻¹] | kcat (glucosamine-6-phosphate [6]) [s⁻¹] | KM (glucosamine-6-phosphate [7]) [µM] |
| --- | --- | --- | --- | --- | --- | --- | --- |
| G43U A48G U65A G66U C70A | < 1e-05 | – | – | – | – | – | – |
| G41C C68G | < 1e-05 | < 1e-05 | < 1e-05 | < 1e-05 | < 1e-05 | – | – |
| U31A C58G G62C A64C C67A | – | – | – | – | – | 1.85e-05 ± 3.6e-06 | – |
| C10U U69G | – | 2.85e-05 ± 8.2e-06 | 2.55e-05 ± 1.1e-05 | 3.24e-05 ± 9.9e-06 | – | 2.93e-05 ± 5.7e-06 | – |
| G35A G41A A48G C61U | < 1e-05 | – | – | – | – | – | – |
| C8G G63A | < 1e-05 | < 1e-05 | < 1e-05 | < 1e-05 | < 1e-05 | – | – |
| A39G G59U | < 1e-05 | < 1e-05 | – | – | 5.72e-05 ± 9.8e-06 | – | – |
| A53G A64U | – | – | 3.12e-05 ± 9.7e-06 | 5.65e-05 ± 1.1e-05 | 0.000103 ± 9.5e-06 | 0.000128 ± 1e-05 | 2590 ± 630 |
| A14G U55G | 0.00161 ± 0.00014 | 0.00404 ± 0.00073 | 0.00984 ± 0.0012 | 0.00953 ± 0.0023 | 0.0589 ± 0.011 | – | – |
| A48U G62U | < 1e-05 | < 1e-05 | < 1e-05 | < 1e-05 | < 1e-05 | – | – |
| U46A A52U | < 1e-05 | < 1e-05 | – | – | – | – | – |
| A6G C71A | < 1e-05 | < 1e-05 | – | – | – | – | – |
| A36U G59A G63U C71U | – | – | – | < 1e-05 | – | < 1e-05 | – |
| G62U G63A | < 1e-05 | < 1e-05 | < 1e-05 | < 1e-05 | < 1e-05 | – | – |
| C58U G62A | < 1e-05 | < 1e-05 | < 1e-05 | < 1e-05 | < 1e-05 | – | – |
| A6U C11G | – | – | – | – | – | – | 1370 ± 460 |
| A64G U65C C70G | – | – | – | – | – | 1.52e-05 ± 6.7e-06 | – |
| G7U G38A A48G G60C | < 1e-05 | – | – | – | < 1e-05 | – | – |
| G9C G43U G44U C58A C71A | < 1e-05 | – | – | – | – | – | – |
| A39C G40C U47A U56G | < 1e-05 | – | – | – | – | – | – |
| U45A G59U C70G | < 1e-05 | – | – | – | < 1e-05 | – | – |

| Variant | self-cleavage kobs at 40 uM GlcN6P (glucosamine-6-phosphate [1]) [s⁻¹] | self-cleavage kobs at 160 uM GlcN6P (glucosamine-6-phosphate [2]) [s⁻¹] | self-cleavage kobs at 640 uM GlcN6P (glucosamine-6-phosphate [3]) [s⁻¹] | self-cleavage kobs at 2500 uM GlcN6P (glucosamine-6-phosphate [4]) [s⁻¹] | self-cleavage kobs at 10000 uM GlcN6P (glucosamine-6-phosphate [5]) [s⁻¹] | kcat (glucosamine-6-phosphate [6]) [s⁻¹] | KM (glucosamine-6-phosphate [7]) [µM] |
| --- | --- | --- | --- | --- | --- | --- | --- |
| G62C C67G | < 1e-05 | – | < 1e-05 | < 1e-05 | < 1e-05 | – | – |
| G7A C11G U69A | 0.000101 ± 2.8e-05 | – | – | – | – | – | – |
| A12G A14C | – | – | 3.2e-05 ± 7.2e-06 | 7.78e-05 ± 1.1e-05 | 0.000135 ± 1.1e-05 | 0.000175 ± 3.9e-06 | 2970 ± 160 |
| A14U G41C C70G | 0.000998 ± 0.00029 | 0.00172 ± 0.00056 | 0.00931 ± 0.0023 | 0.0459 ± 0.018 | 0.0658 ± 0.026 | – | – |
| C58A C70A | – | 3.09e-05 ± 1.1e-05 | 5.32e-05 ± 1.4e-05 | 6.58e-05 ± 1.4e-05 | – | 4.48e-05 ± 1.6e-05 | – |
| A12U U54A | 0.00273 ± 0.00049 | 0.00304 ± 0.00084 | 0.0221 ± 0.0044 | 0.0233 ± 0.0078 | 0.121 ± 0.059 | – | – |
| A15U U31C C50G | 5.26e-05 ± 2.5e-05 | – | – | – | – | – | – |
| G32A G66U | – | – | 4.96e-05 ± 1.7e-05 | 5.52e-05 ± 1.1e-05 | 0.000118 ± 1.6e-05 | 0.000161 ± 4.6e-05 | – |
| C10U A14C | < 1e-05 | – | – | – | – | < 1e-05 | – |
| C67G C70U | – | – | 4.24e-05 ± 6e-06 | 9.79e-05 ± 8.3e-06 | 0.000137 ± 8.4e-06 | 0.000163 ± 2.9e-06 | 1750 ± 88 |
| G37A A39U | – | 6.13e-05 ± 1.5e-05 | 0.00028 ± 4e-05 | 0.000838 ± 9.2e-05 | 0.00116 ± 0.00015 | 0.00167 ± 0.00028 | 3280 ± 870 |
| C16U A33U C50G A64U U69A | 0.000139 ± 2.3e-05 | – | – | – | 0.000172 ± 3.4e-05 | – | – |
| U45G U69A | 0.000333 ± 8.4e-05 | – | – | 0.000589 ± 0.00025 | 0.000362 ± 7.9e-05 | – | – |
| G38U G66C | < 1e-05 | – | < 1e-05 | – | – | – | – |
| U54G C71A | 0.00016 ± 3.2e-05 | – | – | 0.00157 ± 0.00049 | 0.00496 ± 0.001 | – | – |
| U46A A48C | < 1e-05 | – | – | – | – | – | – |
| G7C C16A | < 1e-05 | < 1e-05 | < 1e-05 | < 1e-05 | < 1e-05 | – | – |
| A14G A53U U55G | 0.000607 ± 0.00013 | – | – | – | 0.036 ± 0.013 | – | – |
| U30G A52C | < 1e-05 | < 1e-05 | < 1e-05 | < 1e-05 | – | – | – |
| G41C U55A | < 1e-05 | – | – | 5.87e-05 ± 2e-05 | 7.36e-05 ± 2e-05 | 8.46e-05 ± 5e-06 | 1280 ± 280 |
| G37A U65G | – | – | 4.13e-05 ± 1.5e-05 | 0.000102 ± 1.2e-05 | 0.000191 ± 2.3e-05 | 0.000263 ± 1.3e-05 | 3870 ± 390 |
